The values that follow come from patent publication CN110294802A (INST MILITARY MEDICINE ACADEMY MILITARY SCIENCES PLA, dated 2019).

Test [1] has as its target HAdV7病毒原液 (human/CHN/GZ6965/2001). Nature of the test: cell-based or functional assay.
In test [2] the target is 合成的口蹄疫病毒多肽抗原. Nature of the test: ELISA, antigen coated on plate, anti-human IgG-HRP detection.

B1: 10G12抗体 (antibody, V domains shown)
VH: QVQLKQPGAELVRPGASVKLSCKASGYSFTNYWMHWMKQRPGQGLEWIGMIDPSDSETRLNQKFKDKATLTVDKSSSIAYMQLSSPTSEDSAVYYCARDRYDGGAWFDYWSQGTLVT
VL: DIVMTQTPLSLPVSLGDQASISCRSSQSLVHSNGNTYLHWYLQKPGQSPKLLIYKVSNRFSGVPDRFSVSGSGTDFTLKISRVEAEDLGVYFCSQSTHVPPTFGGGTKLEIK
notes: also called 单克隆抗体10G12
Regarding B1, in test [1], the “抗体对腺病毒感染的抑制率 (EC50, CPE on A549 cells)” value was 0.2 µg/mL. Further, the binding result in test [2] was “no binding (tested: 300μg/ml)”.
